According to publication PMC9256709:

Target: AGL6 fused to YFP or CFP (Arabidopsis thaliana) (UniProt P29386)
Assay: FRET or BRET; in vivo FRET on the FYL1-AGL6-AGL6-AGL15 tetramer: one CFP and one YFP fusion co-expressed with the unlabeled other members in tobacco leaf cells; steady-state FRET efficiency in nuclei

Chain of UniProt P29386 (P29386 whole entry, the tested form may be a part): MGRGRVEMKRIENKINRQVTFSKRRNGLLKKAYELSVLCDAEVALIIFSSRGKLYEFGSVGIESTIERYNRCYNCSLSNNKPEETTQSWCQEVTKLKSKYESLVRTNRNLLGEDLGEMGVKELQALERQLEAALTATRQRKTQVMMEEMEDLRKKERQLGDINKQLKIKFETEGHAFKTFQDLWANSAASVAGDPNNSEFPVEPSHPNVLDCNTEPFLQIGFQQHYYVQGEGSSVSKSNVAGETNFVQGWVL

- FRET efficiency (AGL6:CFP/FYL1:YFP, unlabeled AGL15 co-expressed): 32%
Substance: FYF-like 1 (FYL1/AGL71) fused to CFP or YFP (from UniProt Q9LT93 1-207) (natural protein)
